Patent publication US20060223096A1 (GLYCART BIOTECHNOLOGY, published 2006)
Values belong to the binder of their own block, whether it stands above or below them.

Target: T1, human melanoma chondroitin sulfate proteoglycan (MCSP) (human, UniProt Q6UVK1 30-2322)
T1 construct: whole, on cells; also called HMW-MAA; high molecular weight-melanoma-associated antigen
Assay: flow cytometry on A375 human melanoma cells
Method: The purified, monomeric humanized antibody variants were tested for binding to the human HMW-MAA/MCSP antigen on the A375 human melanoma cell line, using a flow cytometry-based assay. 200,000 cells (in 180 μl FACS buffer (PBS containing 2% FCS and 5 mM EDTA) were transferred to 5 ml polystyrene tubes and 20 μl 10 fold concentrated anti-MCSP antibody (primary antibody) samples (1-5000 ng/ml final concentration) or PBS only were added. After gently mixing the samples, the tubes were incubated at 4° C. for 30 min in the dark. Subsequently, samples were washed twice with FACS buffer and pelleted at 300 g for 3 min. Supernatant was aspirated off and cells were taken up in 50 μl FACS buffer and 2 μl secondary antibody (anti-Fc-specific F(ab′)2-FITC fragments (Jackson Immuno Research Laboratories, USA)) was added and the tubes were incubated at 4° C. for 30 min. Samples were washed twice with FACS buffer and taken up in 500 μl of FACS buffer for analysis by Flow Cytometry. Binding was determined by plotting the geometric mean fluorescence against the antibody concentrations.

T1 sequence (Q6UVK1 30-2322): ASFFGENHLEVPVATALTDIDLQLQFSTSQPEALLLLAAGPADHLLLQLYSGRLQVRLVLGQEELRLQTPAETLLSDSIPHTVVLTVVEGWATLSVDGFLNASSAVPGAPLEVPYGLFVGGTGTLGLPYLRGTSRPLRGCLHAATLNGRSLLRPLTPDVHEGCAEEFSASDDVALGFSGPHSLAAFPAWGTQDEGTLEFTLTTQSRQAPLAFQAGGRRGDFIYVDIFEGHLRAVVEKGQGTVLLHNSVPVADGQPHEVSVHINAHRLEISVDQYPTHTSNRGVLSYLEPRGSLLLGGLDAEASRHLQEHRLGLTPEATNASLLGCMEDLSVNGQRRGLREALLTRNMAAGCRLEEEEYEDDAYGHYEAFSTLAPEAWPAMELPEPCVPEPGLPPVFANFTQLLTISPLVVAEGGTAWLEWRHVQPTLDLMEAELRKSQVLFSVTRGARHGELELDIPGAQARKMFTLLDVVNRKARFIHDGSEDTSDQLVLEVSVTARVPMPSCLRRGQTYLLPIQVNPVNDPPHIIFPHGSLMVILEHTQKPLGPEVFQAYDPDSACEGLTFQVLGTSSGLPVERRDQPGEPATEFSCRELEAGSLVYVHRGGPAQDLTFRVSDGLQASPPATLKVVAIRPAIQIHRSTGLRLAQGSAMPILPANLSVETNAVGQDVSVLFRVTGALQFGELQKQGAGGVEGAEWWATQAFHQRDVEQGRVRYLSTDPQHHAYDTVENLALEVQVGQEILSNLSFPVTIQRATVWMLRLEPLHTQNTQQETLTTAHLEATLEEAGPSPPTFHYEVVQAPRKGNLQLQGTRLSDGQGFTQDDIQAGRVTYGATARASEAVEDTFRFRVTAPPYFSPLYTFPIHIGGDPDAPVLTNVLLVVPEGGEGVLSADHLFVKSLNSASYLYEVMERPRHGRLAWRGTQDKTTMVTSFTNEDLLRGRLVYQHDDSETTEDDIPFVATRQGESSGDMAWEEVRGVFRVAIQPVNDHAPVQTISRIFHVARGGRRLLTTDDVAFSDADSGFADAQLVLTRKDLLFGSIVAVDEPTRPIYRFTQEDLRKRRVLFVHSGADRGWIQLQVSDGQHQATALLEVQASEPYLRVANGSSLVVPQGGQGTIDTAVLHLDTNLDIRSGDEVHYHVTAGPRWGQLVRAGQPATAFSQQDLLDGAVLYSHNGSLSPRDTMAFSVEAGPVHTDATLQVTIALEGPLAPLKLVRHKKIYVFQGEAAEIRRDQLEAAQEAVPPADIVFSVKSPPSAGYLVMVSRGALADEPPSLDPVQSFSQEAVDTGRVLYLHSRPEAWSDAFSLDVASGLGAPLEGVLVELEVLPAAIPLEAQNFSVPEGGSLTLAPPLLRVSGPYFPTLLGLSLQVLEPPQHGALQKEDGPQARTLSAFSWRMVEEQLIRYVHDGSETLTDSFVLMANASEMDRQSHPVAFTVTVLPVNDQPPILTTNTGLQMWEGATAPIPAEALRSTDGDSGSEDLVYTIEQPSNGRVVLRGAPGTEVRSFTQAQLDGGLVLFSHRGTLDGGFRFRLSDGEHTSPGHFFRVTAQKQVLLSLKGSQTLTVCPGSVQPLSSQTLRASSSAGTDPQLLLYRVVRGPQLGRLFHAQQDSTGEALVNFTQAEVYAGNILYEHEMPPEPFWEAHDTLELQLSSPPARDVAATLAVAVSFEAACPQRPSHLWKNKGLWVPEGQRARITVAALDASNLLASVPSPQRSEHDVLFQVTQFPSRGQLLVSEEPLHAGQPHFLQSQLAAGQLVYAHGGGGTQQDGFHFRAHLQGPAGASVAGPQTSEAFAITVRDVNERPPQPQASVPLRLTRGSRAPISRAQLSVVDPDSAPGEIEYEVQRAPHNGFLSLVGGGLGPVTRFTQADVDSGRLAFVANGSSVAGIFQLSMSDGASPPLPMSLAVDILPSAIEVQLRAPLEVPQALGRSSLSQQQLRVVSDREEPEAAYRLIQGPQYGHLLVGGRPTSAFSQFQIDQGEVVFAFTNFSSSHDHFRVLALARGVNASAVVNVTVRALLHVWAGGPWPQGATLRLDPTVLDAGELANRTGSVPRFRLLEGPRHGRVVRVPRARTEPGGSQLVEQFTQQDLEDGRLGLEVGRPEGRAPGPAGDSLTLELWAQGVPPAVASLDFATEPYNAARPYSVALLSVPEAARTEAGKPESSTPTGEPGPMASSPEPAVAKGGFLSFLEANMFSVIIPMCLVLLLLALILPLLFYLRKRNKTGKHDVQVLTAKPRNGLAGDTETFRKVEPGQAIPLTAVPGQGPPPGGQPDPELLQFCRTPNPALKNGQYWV

B1: M-HLE1 heavy chain paired with the light chain construct M-KV4 (antibody, V domains shown)
VH: EVQLVESGGGLVKPGGSLRLSCAASGFTFSNYWMNWVRQAPGKGLEWVGEIRLKSNNFGRYYAQKFQERVTITRDMSTSTAYMELSSLRSEDTAVYYCAAYGNYVGHYFDHWGQGTTVTVSS
VL: DIQLTQSPSFLSASVGDRVTITCKASQNVDTNVAWYQQKPGKAPEPLLFSASYRYTGVPSRFSGSGSGTEFTLTISSLQPEDFATYYCQQYNSYPLTFGGGTKVEIKR
notes: also called M-HLE1/M-KV4
binding result: binds

B2: M-HLC heavy chain combined with the light chain construct M-KV3 (antibody, V domains shown)
VH: QVQLVQSGAEVKKPGASVKVSCKASGYTFTNYWMNWVRQAPGQGLEWMGEIRLKSNNFGRYYAESVKGRVTITRDTSMSTAYMELSSLRSEDTAVYYCAAYGNYVGHYFDHWGQGTTVTVSS
VL: DIQLTQSPSFLSASVGDRVTVTCKASQNVDTNVAWYQQKPGKAPEPLLFSASYRYTGVPSRFSGSGSGTEFTLTISSLQPEDFATYYCQQYNSYPLTFGGGTKVEIKR
notes: also called M-HLC/M-KV3
binding result: no binding (tested: 1-5000 ng/ml final concentration)

B5: M-HLA heavy chain combined with the light chain construct M-KV3 (antibody, V domains shown)
VH: QVQLVQSGAEVKKPGASVKVSCKASGYTFTNYWMNWVRQAPGQGLEWMGEIRLKSNNFGRYYAQKFQGRVTMTRDTSTSTVYMELSSLRSEDTAVYYCARYGNYVGHYFDHWGQGTTVTVSS
VL: DIQLTQSPSFLSASVGDRVTVTCKASQNVDTNVAWYQQKPGKAPEPLLFSASYRYTGVPSRFSGSGSGTEFTLTISSLQPEDFATYYCQQYNSYPLTFGGGTKVEIKR
notes: also called M-HLA/M-KV3
binding result: no binding (tested: 1-5000 ng/ml final concentration)

B7: M-HLB heavy chain combined with the light chain construct M-KV3 (antibody, V domains shown)
VH: QVQLVQSGAEVKKPGASVKVSCKASGYTFTNYWMNWVRQAPGQGLEWMGEIRLKSNNFGRYYAQKFQGRVTITRDTSMSTAYMELSSLRSEDTAVYYCAAYGNYVGHYFDHWGQGTTVTVSS
VL: DIQLTQSPSFLSASVGDRVTVTCKASQNVDTNVAWYQQKPGKAPEPLLFSASYRYTGVPSRFSGSGSGTEFTLTISSLQPEDFATYYCQQYNSYPLTFGGGTKVEIKR
notes: also called M-HLB/M-KV3
binding result: no binding (tested: 1-5000 ng/ml final concentration)

B8: M-HHB heavy chain coexpressed with murine 225.28S light chain (mVL) (antibody, V domains shown)
VH: EVQLVESGGGLVKPGGSLRLSCAASGFTFSNYWMNWVRQAPGKGLEWVGEIRLKSNNFGRYYAESVKGRFTISRDDSKNTLYLQMNSLKTEDTAVYYCTSYGNYVGHYFDHWGQGTTVTVSS
VL: DIELTQSPKFMSTSVGDRVSVTCKASQNVDTNVAWYQQKPGQSPEPLLFSASYRYTGVPDRFTGSGSGTDFTLTISNVQSEDLAEYFCQQYNSYPLTFGGGTKLEIK
notes: also called M-HHB/mVL
binding result: binds

B9: humanized M-HLG/M-KV9 construct of the 225.28S antibody (antibody, V domains shown)
VH: EVQLVESGGGLVQPGGSLRLSCAASGFTFSNYWMNWVRQAPGKGLEWVAEIRLKSNNFGRYYAASVKGRFTISRDDSKNTLYLQMNSLKTEDTAVYYCTTYGNYVGHYFDHWGQGTTVTVSS
VL: DIQLTQSPSFLSASVGDRVTITCKASQNVDTNVAWYQQKPGQAPRPLIYSASYRYTGVPSRFSGSGSGTEFTLTISSLQPEDFATYYCQQYNSYPLTFGGGTKVEIKR
notes: also called M-KV9 together with M-HLG
binding result: binds

B11: M-HHA heavy chain coexpressed with murine 225.28S light chain (mVL) (antibody, V domains shown)
VH: EVQLVESGGGLVKPGGSLRLSCAASGFTFSNYWMNWVRQAPGKGLEWVGEIRLKSNNFGRYYAASVKGRFTISRDDSKNTLYLQMNSLKTEDTAVYYCTTYGNYVGHYFDHWGQGTTVTVSS
VL: DIELTQSPKFMSTSVGDRVSVTCKASQNVDTNVAWYQQKPGQSPEPLLFSASYRYTGVPDRFTGSGSGTDFTLTISNVQSEDLAEYFCQQYNSYPLTFGGGTKLEIK
notes: also called M-HHA/mVL
binding result: binds

B13: M-KV5 light chain paired with the M-HHB heavy chain (antibody, V domains shown)
VH: EVQLVESGGGLVKPGGSLRLSCAASGFTFSNYWMNWVRQAPGKGLEWVGEIRLKSNNFGRYYAESVKGRFTISRDDSKNTLYLQMNSLKTEDTAVYYCTSYGNYVGHYFDHWGQGTTVTVSS
VL: DIQLTQSPSFLSASVGDRVTITCKASQNVDTNVAWYLQKPGQSPQLLIYSASYRYTGVPSRFSGSGSGTEFTLTISSLQPEDFATYYCQQYNSYPLTFGGGTKVEIKR
notes: also called M-HHB/M-KV5
binding result: no binding (tested: 1-5000 ng/ml final concentration)

B15: M-KV12 light chain combined with the M-HLG heavy chain (antibody, V domains shown)
VH: EVQLVESGGGLVQPGGSLRLSCAASGFTFSNYWMNWVRQAPGKGLEWVAEIRLKSNNFGRYYAASVKGRFTISRDDSKNTLYLQMNSLKTEDTAVYYCTTYGNYVGHYFDHWGQGTTVTVSS
VL: DIQLTQSPSFLSASVGDRVTITCKASQNVDTNVAWYQQKPGQAPRPLIYSASYLQSGVPSRFSGSGSGTEFTLTISSLQPEDFATYYCQQYNSYPLTFGGGTKVEIKR
notes: also called M-HLG/M-KV12
binding result: binds

B17: M-KV9 light chain combined with the M-HHB heavy chain (antibody, V domains shown)
VH: EVQLVESGGGLVKPGGSLRLSCAASGFTFSNYWMNWVRQAPGKGLEWVGEIRLKSNNFGRYYAESVKGRFTISRDDSKNTLYLQMNSLKTEDTAVYYCTSYGNYVGHYFDHWGQGTTVTVSS
VL: DIQLTQSPSFLSASVGDRVTITCKASQNVDTNVAWYQQKPGQAPRPLIYSASYRYTGVPSRFSGSGSGTEFTLTISSLQPEDFATYYCQQYNSYPLTFGGGTKVEIKR
notes: also called M-KV9 with M-HHB; M-HHB/M-KV9
binding result: binds

B18: M-HLG heavy chain paired with the light chain construct M-KV4 (antibody, V domains shown)
VH: EVQLVESGGGLVQPGGSLRLSCAASGFTFSNYWMNWVRQAPGKGLEWVAEIRLKSNNFGRYYAASVKGRFTISRDDSKNTLYLQMNSLKTEDTAVYYCTTYGNYVGHYFDHWGQGTTVTVSS
VL: DIQLTQSPSFLSASVGDRVTITCKASQNVDTNVAWYQQKPGKAPEPLLFSASYRYTGVPSRFSGSGSGTEFTLTISSLQPEDFATYYCQQYNSYPLTFGGGTKVEIKR
notes: also called M-HLG/M-KV4
binding result: binds

B19: M-KV6 light chain paired with the M-HHB heavy chain (antibody, V domains shown)
VH: EVQLVESGGGLVKPGGSLRLSCAASGFTFSNYWMNWVRQAPGKGLEWVGEIRLKSNNFGRYYAESVKGRFTISRDDSKNTLYLQMNSLKTEDTAVYYCTSYGNYVGHYFDHWGQGTTVTVSS
VL: DIQLTQSPSFLSASVGDRVTITCKASQNVDTNVAWFQQRPGQSPRRLIYSASYRYTGVPSRFSGSGSGTEFTLTISSLQPEDFATYYCQQYNSYPLTFGGGTKVEIKR
notes: also called M-HHB/M-KV6
binding result: no binding (tested: 1-5000 ng/ml final concentration)

The remaining lines, values ahead:

binding result: binds
B3: M-KV3 light chain coexpressed with murine 225.28S heavy chain (mVH) (antibody, V domains shown)
VH: QVKLQQSGGGLVQPGGSMKLSCVVSGFTFSNYWMNWVRQSPEKGLEWIAEIRLKSNNFGRYYAESVKGRFTISRDDSKSSAYLQMINLRAEDTGIYYCTSYGNYVGHYFDHWGQGTTVTVSS
VL: DIQLTQSPSFLSASVGDRVTVTCKASQNVDTNVAWYQQKPGKAPEPLLFSASYRYTGVPSRFSGSGSGTEFTLTISSLQPEDFATYYCQQYNSYPLTFGGGTKVEIKR
notes: The VL entry ends in KRT; also called mVH/M-KV3

binding result: binds
B4: M-HLE2 heavy chain paired with the light chain construct M-KV4 (antibody, V domains shown)
VH: EVQLVESGGGLVKPGGSLRLSCAASGFTFSNYWMNWVRQAPGKGLEWVGEIRLKSNNFGRYYAESVKGRVTITRDMSTSTAYMELSSLRSEDTAVYYCAAYGNYVGHYFDHWGQGTTVTVSS
VL: DIQLTQSPSFLSASVGDRVTITCKASQNVDTNVAWYQQKPGKAPEPLLFSASYRYTGVPSRFSGSGSGTEFTLTISSLQPEDFATYYCQQYNSYPLTFGGGTKVEIKR
notes: also called M-HLE2/M-KV4

binding result: binds
B6: M-HLD heavy chain paired with the M-KV9 light chain (antibody, V domains shown)
VH: QVQLVQSGAEVKKPGASVKVSCKASGFTFSNYWMNWVRQAPGQGLEWMGEIRLKSNNFGRYYAESVKGRVTITRDTSMSTAYMELSSLRSEDTAVYYCAAYGNYVGHYFDHWGQGTTVTVSS
VL: DIQLTQSPSFLSASVGDRVTITCKASQNVDTNVAWYQQKPGQAPRPLIYSASYRYTGVPSRFSGSGSGTEFTLTISSLQPEDFATYYCQQYNSYPLTFGGGTKVEIKR
notes: also called M-HLD/M-KV9

binding result: binds
B10: M-KV7 light chain paired with the M-HHB heavy chain (antibody, V domains shown)
VH: EVQLVESGGGLVKPGGSLRLSCAASGFTFSNYWMNWVRQAPGKGLEWVGEIRLKSNNFGRYYAESVKGRFTISRDDSKNTLYLQMNSLKTEDTAVYYCTSYGNYVGHYFDHWGQGTTVTVSS
VL: DIQLTQSPSFLSASVGDRVTITCKASQNVDTNVAWYQQKPGKAPKPLIYSASYRYTGVPSRFSGSGSGTEFTLTISSLQPEDFATYYCQQYNSYPLTFGGGTKVEIKR
notes: also called M-KV7 antibody; M-HHB/M-KV7

binding result: binds
B12: M-KV10 light chain combined with the M-HLG heavy chain (antibody, V domains shown)
VH: EVQLVESGGGLVQPGGSLRLSCAASGFTFSNYWMNWVRQAPGKGLEWVAEIRLKSNNFGRYYAASVKGRFTISRDDSKNTLYLQMNSLKTEDTAVYYCTTYGNYVGHYFDHWGQGTTVTVSS
VL: DIQLTQSPSFLSASVGDRVTITCRASQNVDTNLAWYQQKPGQAPRPLIYSASYRYTGVPSRFSGSGSGTEFTLTISSLQPEDFATYYCQQYNSYPLTFGGGTKVEIKR
notes: also called M-HLG/M-KV10

binding result: binds
B14: M-HHC heavy chain coexpressed with murine 225.28S light chain (mVL) (antibody, V domains shown)
VH: EVQLVESGGGLVKPGGSLRLSCAASGFTFSNYWMNWVRQAPGKGLEWVANIRLKSNNFGRYYAESVKGRFTISRDDSKNTLYLQMNSLKTEDTAVYYCTSYGNYVGHYFDHWGQGTTVTVSS
VL: DIELTQSPKFMSTSVGDRVSVTCKASQNVDTNVAWYQQKPGQSPEPLLFSASYRYTGVPDRFTGSGSGTDFTLTISNVQSEDLAEYFCQQYNSYPLTFGGGTKLEIK
notes: also called M-HHC/mVL

binding result: binds
B16: M-KV4 light chain paired with the M-HHB heavy chain (antibody, V domains shown)
VH: EVQLVESGGGLVKPGGSLRLSCAASGFTFSNYWMNWVRQAPGKGLEWVGEIRLKSNNFGRYYAESVKGRFTISRDDSKNTLYLQMNSLKTEDTAVYYCTSYGNYVGHYFDHWGQGTTVTVSS
VL: DIQLTQSPSFLSASVGDRVTITCKASQNVDTNVAWYQQKPGKAPEPLLFSASYRYTGVPSRFSGSGSGTEFTLTISSLQPEDFATYYCQQYNSYPLTFGGGTKVEIKR
notes: also called M-HHB/M-KV4
